The text below walks through data of PMC4928834.

As usually defined, the stoichiometry N is the number of molecules, sites or subunits per partner or assembly.

Data set [1] has as its target soluble part of FloA (flotillin A) with 6xHis tag (B. subtilis) (UniProt P54466). The experiment in a line: SEC; FloA6His after Ni-NTA on HiLoad 26/600 Superdex 200 pg, 1.5 ml/min, 20 mM HEPES, 200 mM NaCl, 20 mM MgCl2, 20 mM KCl, pH 7.5. On the technique in general: SEC sorts molecules by how far they enter the pores of the column.
The test system of the next data set is P54466. In words: SEC; HMW fraction of FloA-Strep run again on gel filtration undiluted, 3 fold and 5 fold diluted; peak areas measured.
Data set [2] deals with soluble part of FloA (flotillin A) with Strep-tag (B. subtilis) (UniProt P54466). In words: SEC; FloAstrep after Strep-Tactin on Superose 6 10/300 GL, 0.5 ml/min, 100 mM Tris-Cl, 150 mM NaCl, pH 7.5.

The substance “soluble part of FloA (flotillin A) with 6xHis tag (from UniProt P54466 56-331) (domain or fragment)” yielded a stoichiometry N in data set [1] of 2. Regarding “soluble part of FloA (flotillin A) with Strep-tag”, in the data set on P54466, the “percent of the protein in the HMW fraction (5-fold diluted)” value is 82% are in the HMW fraction and 12% in the LMW peak; the “percent of the protein in the HMW fraction (undiluted or 3-fold diluted)” value is “about 90% of the proteins are in the HMW fraction”; the “percent of the protein in the LMW peak (5-fold diluted)” value was 82% are in the HMW fraction and 12% in the LMW peak. With “soluble part of FloA (flotillin A) with Strep-tag (from UniProt P54466 56-331) (domain or fragment)”, the stoichiometry N in data set [2] was found to be 4.
